From paper PMC3690454, “14-3-3 Proteins Interact with a Hybrid Prenyl-Phosphorylation Motif to Inhibit G Proteins” (Cell, 2013)
Square brackets hold non-standard residues; d marks the D form. Ends that are not written are not given here. * marks the point of attachment. Geranylgeranyl = CC(C)=CCC/C(C)=C/CC/C(C)=C/CC/C(C)=C/C*; Biotin = O=C1N[C@H]2[C@H](CS[C@H]2CCCCC(=O)*)N1; pT = C[C@@H](OP(=O)(O)O)[C@H](N)C(=O)O; pS = N[C@@H](COP(=O)(O)O)C(=O)O; Ahx = NCCCCCC(=O)O

B1: RPGR C-terminal peptide, phosphorylated and geranylgeranylated (N-Bio-Eahx-TNTERRSKpSC(S-geranylgeranyl)-C) (peptide)
peptide: {Biotin-Ahx}-TNTERRSK[pS]C(Geranylgeranyl)
notes: also called RPRG; source: synthetic peptide
B2: Rap1A C-terminal peptide, phosphorylated and geranylgeranylated (N-Bio-Eahx-EKKKPKKKpSC(S-geranylgeranyl)-C) (peptide)
peptide: {Biotin-Ahx}-EKKKPKKK[pS]C(Geranylgeranyl)
notes: also called Rap1A+P+GG; source: synthetic peptide

Tests used:
14-3-3ζ [1] = biological target: T1, 14-3-3ζ (Homo sapiens, UniProt P63104); test: Biolayer interferometry (Octet RED96), immobilised biotinylated peptides, 14-3-3ζ in solution; format: binding
T1 construct: hexa-His; made in house; host or cells: E. coli BL21(DE3) Star
T1 sequence (P63104 1-245): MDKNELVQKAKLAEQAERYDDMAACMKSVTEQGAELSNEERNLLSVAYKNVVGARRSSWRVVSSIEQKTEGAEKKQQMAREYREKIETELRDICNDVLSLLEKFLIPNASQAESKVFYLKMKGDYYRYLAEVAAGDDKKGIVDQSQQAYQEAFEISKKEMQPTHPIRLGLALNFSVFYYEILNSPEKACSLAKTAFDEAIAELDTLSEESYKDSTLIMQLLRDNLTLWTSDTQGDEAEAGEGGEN
Method: Biolayer interferometry was carried out using an Octet RED96 instrument (ForteBio). Biotinylated peptides were immobilized on streptavadin-coated biosensors (ForteBio) at a concentration of 1 μg/ml in BI buffer (25 mM Tris, 150 mM NaCl, 0.1% Tween-20), for 300 s. The immobilization typically reached a response level of 2 nm. Association and dissociation curves were obtained through addition of a dilution series of 14-3-3ζ ([…]) for 300 s followed by dissociation in BI buffer for 300 s using the Octet acquisition software. The binding data were fitted using the Octet analysis software.

14-3-3ζ [2] = biological target: T1, 14-3-3ζ; test: Isothermal titration calorimetry of Rnd3 C-terminal peptides with 14-3-3ζ; format: binding; details: ITC, tested at 15°C and 25°C
Method: ITC measurements were carried out using a VP-ITC200 instrument (GE Healthcare). The 14-3-3ζ domain (see Extended Experimental Procedures) was used at 50–60 μM in ITC buffer (50 mM Tris [pH 7.5]), 100 mM NaCl, 1 mM TCEP). Rnd3 C-terminal peptides were solubilized in ITC buffer and used at 500–600 μM. Titrations were carried out at 25°C in triplicate. Each titration was fitted to a simple one-site binding model using the Origin software provided with the instrument. Titrations with nonbinding peptides were carried out at 15°C and 25°C.
GST-14-3-3β protein was expressed as previously reported ([Yaffe et al., 1997]). A hexa-His-tagged version of 14-3-3ζ was expressed and purified essentially as previously reported ([Kostelecky et al., 2009]). In brief, the E. coli strain BL21(DE3) Star (Invitrogen) was transformed with the expression plasmid that was maintained by 34 μg/ml chloramphenicol. E. coli cells were grown to OD600nm of 0.7-0.8 in TB medium at 37°C and protein expression induced by 1 mM IPTG for 5 hr at 30°C. Pelleted cells were suspended in buffer A (25 mM Tris [pH 7.5], 100 mM NaCl, 1 mM EDTA, and 1 mM DTT) and disrupted by sonication. Insoluble material was cleared by high-speed centrifugation and the cleared lysate applied to a 5 ml HisTrap column using an AKTA system (GE Healthcare). The 14-3-3ζ protein was eluted with a linear gradient (0–500 mM) of Imidazole in buffer A. Finally, the protein was subjected to size-exclusion chromatography using a High-Load S200 pg column. As previously described, 14-3-3ζ eluted as a dimer with a molecular weight of ∼60 kDa. The final yield of 14-3-3ζ was 30–40 mg per liter of TB medium.

hexa-His-tagged 14-3-3ζ [3] = biological target: hexa-His-tagged 14-3-3ζ (UniProt P63104); test: ITC; VP-ITC200; 14-3-3ζ at 50–60 μM, Rnd3 peptides at 500–600 μM; 50 mM Tris pH 7.5, 100 mM NaCl, 1 mM TCEP; 25°C, one-site model; non-binding peptides at 15°C and 25°C
hexa-His-tagged 14-3-3ζ [4] = biological target: T2, hexa-His-tagged 14-3-3ζ (UniProt P63104 1-245); test: BLI; Octet RED96; biotinylated peptides immobilised on streptavidin-coated biosensors (1 μg/ml, 300 s); dilution series of 14-3-3ζ for 300 s, dissociation 300 s; BI buffer 25 mM Tris, 150 mM NaCl, 0.1% Tween-20; data of a typical experiment (n ≥ 3); details: both partners purified
T2 construct: 14-3-3 protein zeta; expressed and purified essentially as in Kostelecky et al., 2009; eluted as a dimer of ~60 kDa; the ITC methods call it 'the 14-3-3ζ domain'; source: E. coli BL21(DE3) Star, purified (HisTrap, size-exclusion chromatography)
T2 sequence: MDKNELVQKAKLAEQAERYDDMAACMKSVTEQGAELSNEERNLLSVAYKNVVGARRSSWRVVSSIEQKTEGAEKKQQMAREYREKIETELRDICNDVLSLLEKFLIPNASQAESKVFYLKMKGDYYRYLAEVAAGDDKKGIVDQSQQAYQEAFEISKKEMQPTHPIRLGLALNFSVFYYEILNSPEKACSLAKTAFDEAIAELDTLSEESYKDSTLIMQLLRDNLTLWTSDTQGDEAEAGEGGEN

Row | Molecule | Kd (hexa-His-tagged 14-3-3ζ [4]) | kon (hexa-His-tagged 14-3-3ζ [4]) | other results
1 | DLRKDKAKSC-OH [−P-F] | – | – | Kd (14-3-3ζ [1]; kinetic fit, peptide immobilised at 1 μg/ml, 25 mM Tris, 150 mM NaCl, 0.1% Tween-20, association 300 s, dissociation 300 s, typical experiment (n ≥ 3), NB = no binding): > 4000 nM; binding to 14-3-3ζ (in words) (14-3-3ζ [2]): no binding
2 | Rap1A+P-GG: phosphorylated Rap1A peptide without the geranylgeranyl modification (EKKKPKKK[pS]C; not fully specified (N-terminus); also: biotinylated) | – | – | affinity for 14-3-3ζ (in words) (14-3-3ζ [1]; Figure 7C): micromolar affinity
3 | biotinylated Rnd3 C-terminal peptide, phosphorylated on S240 (+P−F) | – | – | dH (hexa-His-tagged 14-3-3ζ [3]): -5.68 kcal/mol; stoichiometry N (hexa-His-tagged 14-3-3ζ [3]): 0.89
4 | biotinylated Rnd3 C-terminal peptide, phosphorylated on S240 and farnesylated on C241 (+P+F) | – | – | dH (hexa-His-tagged 14-3-3ζ [3]): -2.96 kcal/mol; stoichiometry N (hexa-His-tagged 14-3-3ζ [3]): 0.83
5 | {Biotin-Ahx}-PGKARKKS[pS]C(Geranylgeranyl) (source: synthetic peptide) | 170 nM | 320000 M⁻¹ s⁻¹ | –
6 | {Biotin-Ahx}-PTPIKRGR[pS]C(Geranylgeranyl) (source: synthetic peptide) | 868 nM | 41000 M⁻¹ s⁻¹ | –
7 | B1 | 95 nM | 240000 M⁻¹ s⁻¹ | koff (hexa-His-tagged 14-3-3ζ [4]): 0.022 s⁻¹
8 | {Biotin-Ahx}-GGDDKKSK[pT]C(Geranylgeranyl) (source: synthetic peptide) | 44.5 nM | 410000 M⁻¹ s⁻¹ | –
9 | B2 | 23.6 nM | 1.4e+06 M⁻¹ s⁻¹ | koff (hexa-His-tagged 14-3-3ζ [4]): 0.034 s⁻¹
